Test results as given in publication PMC9834221, “TLR3 forms a laterally aligned multimeric complex along double-stranded RNA for efficient signal transduction”.
Numbering of substitutions follows the chain as printed.

How the values were obtained:
[1] = molecular target: T1, TLR3 ectodomain WT (mouse, UniProt Q99MB1 26-705); experiment: cryo-EM structure; two TLR3 dimers laterally aligned along dsRNA; Protein in 25 mM MES-NaOH pH 5.3, 0.2-0.3 M NaCl (purification buffer); complex formation conditions not in the material; settings: protein: recombinant; tags: C-terminal FLAG-His6; chain copies: 4; blunt
T1 sequence: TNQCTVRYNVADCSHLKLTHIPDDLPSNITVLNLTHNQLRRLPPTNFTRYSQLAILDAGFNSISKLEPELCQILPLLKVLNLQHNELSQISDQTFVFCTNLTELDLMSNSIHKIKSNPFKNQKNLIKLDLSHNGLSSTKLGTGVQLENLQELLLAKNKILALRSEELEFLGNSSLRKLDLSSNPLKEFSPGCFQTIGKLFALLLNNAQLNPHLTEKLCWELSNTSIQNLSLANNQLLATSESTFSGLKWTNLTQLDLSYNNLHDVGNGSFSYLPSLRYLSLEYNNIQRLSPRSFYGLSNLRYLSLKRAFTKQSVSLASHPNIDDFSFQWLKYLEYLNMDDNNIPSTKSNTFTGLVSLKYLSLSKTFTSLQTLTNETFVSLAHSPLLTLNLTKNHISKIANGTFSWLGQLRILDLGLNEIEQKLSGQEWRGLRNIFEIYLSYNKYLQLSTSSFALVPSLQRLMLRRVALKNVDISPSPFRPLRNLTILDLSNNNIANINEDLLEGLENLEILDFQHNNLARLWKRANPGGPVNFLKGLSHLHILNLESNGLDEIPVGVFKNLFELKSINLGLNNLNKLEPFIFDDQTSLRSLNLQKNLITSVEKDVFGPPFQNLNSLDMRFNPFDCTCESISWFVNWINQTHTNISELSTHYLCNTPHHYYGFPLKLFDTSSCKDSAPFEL

[2] = molecular target: T2, TLR3 ectodomain Mut10 (mouse, UniProt Q99MB1 26-705, S116E;Q118E;K138E;K140E;N142E;K145E;N146E); experiment: cryo-EM 3D reconstruction; dimer identical to WT; Protein in 25 mM MES-NaOH pH 5.3, 0.2-0.3 M NaCl (purification buffer); complex formation conditions not in the material; settings: protein: recombinant; tags: C-terminal FLAG-His6; chain copies: 2; blunt
T2 sequence: T1 sequence with S91E, Q93E, K113E, K115E, N117E, K120E, N121E

B1: 90 bp dsRNA (dsRNA)
RNA 1: AUUCUGCGGAUUAUUUGGCAAAGGAAGCAUUGACACAUGCGCCAAUUCUGCGGAUUAUUUGGCAAAGGAAGCAUUGACACAUGCGCCAAU
RNA 2: AUUGGCGCAUGUGUCAAUGCUUCCUUUGCCAAAUAAUCCGCAGAAUUGGCGCAUGUGUCAAUGCUUCCUUUGCCAAAUAAUCCGCAGAAU
modifications: 2'-O-methyl at strand 1 positions 10-15 and 80-85 (lower case); complement modifications not stated
binding result [1]: binds

B2: 46 bp dsRNA (dsRNA)
RNA 1: AUUCUGCGGAUUAUUUGGCAAAGGAAGCAUUGACACAUGCGCCAAU
RNA 2: AUUGGCGCAUGUGUCAAUGCUUCCUUUGCCAAAUAAUCCGCAGAAU
modifications: 2'-O-methyl at strand 1 positions 10-15 and 36-41 (lower case); complement modifications not stated
binding result [2]: binds
